Results published in the DeepSol protein solubility set.

Assay: soluble on expression in E. coli; label from the status in PepcDB or PDB records

Sequence | soluble on expression in E. coli
MHHHHHHSSRENLYFQGTLPLWIGKPGDKPPPLCGAIPASGDYVARPGDKVAARVKAVDGDEQWILAEVVSYSHATNKYEVDDIDEEGKERHTLSRRRVIPLPQWKANPETDPEALFQKEQLVLALYPQTTCFYRALIHAPPQRPQDDYSVLFEDTSYADGYSPPLNVAQRYVVACKEPK | soluble
MHIEFRHLRTIKAIHDCGGLARAADQLNITQSALSHQIKGLEDQAGVELFVRRSKPMKLSAAGMRLLRLAEQILPQVEAMQAEFSSLRDGRSGRMHIAIECHACFEWLFPVLEAFRKNWPDVDVDIRPGLAFDALPALQKEEVDLVVSSDPEEIAGVEFVELFDYNAVFVAASTHPLAAKPWVEAEDFRGETLITYPVERTRLDVFSQLLIPARVEPAQVRQVELTAVILLLVASNRGVSVLPDWVVREVKYSSDYVTRPLTETGITRRLYAAVRSEDLEKPFVQELVTLARSEARKLQSR | not soluble
MHKEKHCAVVIDCWMEKIGEVNFENKPSKFPAFVEEIRKICGTKDFVFGLEDTRGFGRNLASYLTGRKFEVKHVNPVYTSAIRLSNPIIYKDDSYDAYCVARVLRDMVDTLQDAKHEDIYWAIRQLVKRREIIVKYNVMNKNQLHSQLSYGYPSYKKFFSQIDGKSALCFWENYPSPEHIWCTTPEQIYETIKAVHQAFKIERVHAIIDMIKKDGNTQKGYQEERDTIVRNIVKDIKNNQELLKDIEKQLRKLLPQTGYKLQTMPGIDLITEAKIVSEIGDINRFPNSDKLARFMGLAPVHFSSAGKGKEERCRNGNRELNAIFHFLAIQMVAVSPSGKPRHPVFREYFEQKVKEGKNKPQALICISRTLVRLIYGMMKTKTEYRPYEKKEEEGNN | soluble
MHKSIAVFEVEGGNDKQFNGHRKDTLPIVDAIKEKGWHAEVVFYRPEWSEGLFEYVSQNFDGYISRVNPGNIPGGEKGYFDLLTKLSEAGLVGMSTPAEMMAYGAKDALVKLNDTDLVPSDTAAYYDVETFHNTFPTSLSYGERVLKQNRGSTGSGIWRVQLEDKELAASVAPGTALPLNTKLRCTEAVDNHTEIRELGEFMDFCDQYIVGDNGMLVDMRFMPRIVEGEIRILMVGPHPVFVVHKKPAAGGDNFSATLFSGAKYTYDKPEAWQELVDMFAAARPVIAEKLGGDNIPLIWTADFMLADGENGEDTYVLGEINCSCVGFTSELDMGIQELVAQEAVERVEKKHA | not soluble
MHLDRQSLEKAKHLIQSGLIDTIEVGTIKGLQEIHRFLFEGLYEFAGKIRDKNIAKGNFRFANCLYLDLILPRIESMPQNNFNQIVEKYVEMNIAHPFLEGNGRATRIWLDLLLKKELKKIVLWDRIDKAAYLSAMERSPVNDLEIKTLLKKHLSSNTNDPLTLIKGITQSYYYEGLLEHHHHHH | not soluble
MHLLPELASHHAVSIPELLVSRDERQARQHVWLKRHPVPLVSFTVVAPGPIKDSEVTRRIFNHGVTALRALAAKQGWQIQEQAALVSASGPEGMLSIAAPARDLKLATIELEHSHPLGRLWDIDVLTPEGEILSRRDYSLPPRRCLLCEQSAAVCARGKTHQLTDLLNRMEALLNDVDACNVN | not soluble
MHPRKIEIVTAAVTCFLERGYHQTGIRDIARQAGVSLGNLYNHFAGKEAVLAFIAELEGRELAAFVDMLSDPEEPYAALERFIWAYAAYAARPENALLGLELMAEALRNPTISQVFDGNRHQLVAALMGCLERGVSTGRFRHLDDTRALALMILDTLEGQGLRQLDRKTPDPDAVRTLCAVLTTGLLARDQSPPPVPCNTPCSSA | not soluble
MHRSFPRLVRSQGNLLKGMFGKSGEKEAVKQLTLEEQESLRKTLPSIRARESTQVTASADSVTEFDDDLLTMSRIDTDAIRARGFLKYTQNYVPGVDVKNQVLEAASSCLRSAGVKSENVDQYKFVEGDNSVKFELLNRLGKSIEHWPTNGKLLHLETVADVVEFYQTPVKNVTKYTEMARDENKPKNVSIMEHAARFHPEDTHMYHGGITAFPGSGGEVLSLRQKRLLRQFQPKKEWFDYDDQTFDYTRPDKNMPWDPEVANQMDKYTDKRYNLKTKQFTRIRQ | not soluble
MHSEKSVMMEPMTNPKNDPRNPDLLLDFEEVEFTRGGKTLVGPITWQVELDERWVILGPNGAGKTTLIRMAAAEEFPSKGALWIMGERIGKTDMRDLRAMIGVSSSALGNRIPTNEKVLDLVISAGYAILGRWREEYDKWDHDRAIEILEQVGAYHLADQTWGTLSEGERKRVLVARALMTNPELLLLDEPTAGMDLGGREDLVGYLAQLAMDPDAPAMVMITHHVEEIPAGFTHALLLDEGEVVSQGLIDEVLTSANLTKAFHQPIKVDKIDGRYFARRQRTARSHRR | not soluble
MHSHLIPGIDDGSKSMEESLSLIQEFKKLGYKKIITTPHIMGDFFKNSKETIFPGLIELRASIAEAGIDIEIEAAAEYYLDEWFIEKLERNEPLLKLGGNYVLFETSYMNRPTQLHQAIFLMRSLGYIPVLAHPERYTYLYEDFKLFKEIYEMDVLFQINLNSLAGYYSKTAKLYAEKLIDNNMVDFVGTDCHGQRHIDVLAKVKVSNYYQKLQKLSILNNTLIS | not soluble
MHSLFTLNLDLERAGKVICVQSLPFDTARETLLLLSPVGTQCCYMKNAALFLISHFNLIILESDTWLAYANEAGVNPEEGVADFIRQFNAALPEPVRVDALVGYCSSAPLALLAANQGACRTLLLLNGAYFLKDDGVIKSQYERDVERMMQSIPQGNCAQVYEAVSLLHTKSAYTPSDYRYQQVRPLRELSAFRQYLTFLNSLASLESVRIAQTVKTPTLVWCGSQDRYTDTASSRYIAQLLPHSELVEDPDGQHHDFVDGHERLYLTMTHFLTRHKQRAIQ | not soluble
MHSLYLGVVKVMAKIILVYANCVNSTAKGDFALAGQIAKDLVREKTSDDIDVVLTSTLDGIARFESLYGKAVDGRVIIEGTSVGLCALELFESVDNEVVAFIEANRCKYAPSDILKRVLSPDSKFLFIGAANQKAIATGDKFTKSWLYISHKGDQPNVYEHFDEDDSLIQSVGLGDDRLGLPSLPKVDELPEMNSTQSQKIPSGEYGFMYLAAVHGIDDVYLMNQYMSLTEMGQYVLVGEYAKQSKEVQMVLHSLQYKGSSVSLTMPQIFFHDSVDNCLMRNMVSKSSGPLVVSTGVMSSIEAMQDGKLTYYQTMSNNTQFVASYLIAVKSICSSDTTLFGSMPKLIIDLSNLLFAEKPLKESQMKEIKSLLGMSSVTSRLGEMNKRIIAKANGTVAGELLSFIGKPKTTQSHKQCISVCMSLRKSGETTSPIFDQALRRAAAWGRLFELKVLIASMSTSDLNKKDKTGNQYTALHWAVMQGHLDCARLLVKSGASVDIQDKSGKSPLHYAIKRGDKETIKLLVQAGASLEIMDDSGAKPCDGSESWVPEYIKSCYEKSGHKSSSLF | not soluble
MHSPDPFTDHPDSDDSFEKFVPTPNVNRRRSDAIIVSDEGSFDGITGYSQVTVIENCPNTTVLEDENKRANPDDTITRMLESSDEEDETENNSDNDALADLLKSFRTEDQKRKEVDIEQAANISIDIFGDLIEEVDSEHEAAEYPDREGGNSMDKQGTMLPVEVPIQNNIKLIPRKRRLEPKSYDCEPSTSAAHGPVGVVSSDSGEYWNQQKTITIHGQNFEINNFNDYMRMKITKLNHQVNHGYAKPLENVSRIMEGFSVFVNGYTDPPALVIRDLMISHGGEYHCYYQHGITSYTIASSIATAKINRIRENEIFIKADWITESIAAGKPLDYRDFLIYEKGSVEKGQMQQFLTISTRNTGGNNETTSSNQFSDARNPNFIRDYYARSRLHLISTLAQDMKDFVANLKLEGKLTEKCFEEKELIDMKSLSNEISRESTVFHVDLDCFFVSVAVRNRIDLKHKEVAITHSKGTISNSMSEVASCSYAARDCGVKNGMLVRDALQKCPQLTLLPYQFEDYVQVSRKIYEILASYTLEVRAVSCDEMYINMSSFCEKYEINDPTILAEHIRKVIREKTQCPASVGIGSTSLLARLATRHAKPDGVFWVNAHKKNEFISEEKVKDLPGFGYEMMNRLTSFFGDITKCRELQLKTERELVPVFGPKLASKILRQCRGIEEDPDDFWATHVRKSVSCDINYGIRFTKRGEVIQLMTAIGAELERKLIDSKLTAGSITLKLMVRSANAPIQTSKFMGHGICDTFTKTCNLNVPTTRGESLTSEAMKLYAKVSPKVEDLRGVGVTCGKLKSKLKKDAATAVQEMFGKTSRVGNMARTDEQLNIIPRNEDELDKEPVIIPAVTEDLEVQSIPRQINFRVANDIDIPEIVKSTLLNGRSDNNLELEDLEDDGLVENRLAELECIIQNEPTKESVTNLQEMLSTLLNYGKLSAFETVFRKFEEISMDSSRCDTAWFSVFHLMVPFIEEESKDLLEFPIATTRNLGAMIASNTDNTSISSPEPFVPKEVFVIDSTKHT | not soluble
MHTSILLLTALCAGAYAQFSANGQAAILNVHNTLRSRIAKGTYVAKGTAKPAASDMLKMKWDATVAASAQAYANKCPTGHSGAAGLGENLYWYWTSATITNIDQFGATGSAAWEKEFQDYGWSSNTLSMSLFNTGIGHATQMAWAKTNLIGCGVKNCGKDTNGFNKVTVVCQYKPQGNYLNQNIYTSGTTCSKCPSGTSCEAATGLCA | not soluble
MHYSQMRWMFFCLTALLHGSFIVNAAKILVYCPSISKSHVLLCSKYADLLHNAGHDTVLFIPSYSKLLDNYDGAKHAKVWRLHNVTEAYDTKLGTLANVMENSHIGFIDRLTFDADFWIDMCADLLGKLPEMQHIIDYKFDLVIYNEIDPCTPAIVRLFNIPKTVLLSSEAIMDKVAWNLGKPMTTFAES | not soluble
MIAAQLLAYYFTELKDDQVKKIDKYLYAMRLSDETLIDIMTRFRKEMKNGLSRDFNPTATVKMLPTFVRSIPDGSEKGDFIALDLGGSSFRILRVQVNHEKNQNVHMESEVYDTPENIVHGSGSQLFDHVAECLGDFMEKRKIKDKKLPVGFTFSFPCQQSKIDEAILITWTKRFKASGVEGADVVKLLNKAIKKRGDYDANIVAVVNDTVGTMMTCGYDDQHCEVGLIIGTGTNACYMEELRHIDLVEGDEGRMCINTEWGAFGDDGSLEDIRTEFDRAIDAYSLNPGKQLFEKMVSGMYLGELVRLILVKMAKEGLLFEGRITPELLTRGKFNTSDVSAIEKNKEGLHNAKEILTRLGVEPSDDDCVSVQHVCTIVSFRSANLVAATLGAILNRLRDNKGTPRLRTTVGVDGSLYKTHPQYSRRFHKTLRRLVPDSDVRFLLSESGSGKGAAMVTAVAYRLAEQHRQIEETLAHFHLTKDMLLEVKKRMRAEMELGLRKQTHNNAVVKMLPSFVRRTPDGTENGDFLALDLGGTNFRVLLVKIRSGKKRTVEMHNKIYAIPIEIMQGTGEELFDHIVSCISDFLDYMGIKGPRMPLGFTFSFPCQQTSLDAGILITWTKGFKATDCVGHDVVTLLRDAIKRREEFDLDVVAVVNDTVGTMMTCAYEEPTCEVGLIVGTGSNACYMEEMKNVEMVEGDQGQMCINMEWGAFGDNGCLDDIRTHYDRLVDEYSLNAGKQRYEKMISGMYLGEIVRNILIDFTKKGFLFRGQISETLKTRGIFETKFLSQIESDRLALLQVRAILQQLGLNSTCDDSILVKTVCGVVSRRAAQLCGAGMAAVVDKIRENRGLDRLNVTVGVDGTLYKLHPHFSRIMHQTVKELSPKCNVSFLLSEDGSGKGAALITAVGVRLRTEASS | soluble
MIALFNKLLDWFKALFWKEEMELTLVGLQYSGKTTFVNVIASGQFNEDMIPTVGFNMRKITKGNVTIKLWDIGGQPRFRSMWERYCRGVSAIVYMVDAADQEKIEASKNELHNLLDKPQLQGIPVLVLGNKRDLPGALDEKELIEKMNLSAIQDREICCYSISCKEKDNIDITLQWLIQHSKSRRS | soluble
